Entries after “also recorded” stand apart in the source; their conditions may differ.
Tests used:
[1] = molecular target: phytochrome-associated protein phosphatase 5 from Arabidopsis thaliana (AtPAPP5), isoform 2, 1-484, affinity tag removed, labelled with a green maleimide dye (Arabidopsis thaliana) (UniProt Q84XU2); assay: MST; labelled AtPAPP5 at 50 nM, AtPhyB(1-651) variant titrated (S86D 4 nM to 70 uM, S84D 2 nM to 29 uM); 100 uM arachidonic acid (AA) added, 15 min incubation; 25 °C; premium coated capillaries; 1:1 binding model; apparent KD; phytochrome in photodynamical equilibrium with prevalence of Pfr
Sequence of UniProt Q84XU2 (Q84XU2 other isoform, or with tags, fused parts or gaps): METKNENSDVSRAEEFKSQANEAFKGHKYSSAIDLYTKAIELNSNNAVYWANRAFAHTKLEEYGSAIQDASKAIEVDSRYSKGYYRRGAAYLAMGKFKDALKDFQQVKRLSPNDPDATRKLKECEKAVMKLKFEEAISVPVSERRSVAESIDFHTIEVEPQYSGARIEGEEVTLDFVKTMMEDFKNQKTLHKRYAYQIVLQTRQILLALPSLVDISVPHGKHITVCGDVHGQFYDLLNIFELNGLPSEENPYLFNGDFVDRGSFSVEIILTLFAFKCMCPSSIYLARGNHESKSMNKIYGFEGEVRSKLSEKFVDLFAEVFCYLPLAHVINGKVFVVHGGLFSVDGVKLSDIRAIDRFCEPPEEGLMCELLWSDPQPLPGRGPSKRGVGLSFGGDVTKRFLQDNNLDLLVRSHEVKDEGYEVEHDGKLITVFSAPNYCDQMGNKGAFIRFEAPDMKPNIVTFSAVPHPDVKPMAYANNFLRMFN

[2] = phosphorylation at S86

Kd [1] [nM]	Substance	other [2]
1300	AtPhyB(1-651) S84D, phosphomimetic variant of the photosensory module of Arabidopsis thaliana phytochrome B (domain or fragment)	
1800	AtPhyB(1-651) S86D, phosphomimetic variant of the photosensory module of Arabidopsis thaliana phytochrome B (domain or fragment)	
	phytochrome B (AtPhyB): S86D phosphomimetic	increases, dark conversion t1/2 40 min vs 270 min for wild type; also recorded: changes, 5 nm bathochromic shift of the Pfr absorption maximum
